Our source for the Ki values is patent publication US20210032299A1 (Eli Lilly, published 2021).

Starred links: 1 amine or outer side, 2 acyl side, 3 side chain; linkers in the order of their positions; H or OH if unused. Non-standard residues stand in square brackets, D forms with d. Groups on a side chain read outwards from the residue. No end group written: not given here. *: point of attachment. C20 diacid = O=C(O)CCCCCCCCCCCCCCCCCCC(=O)*; γGlu = O=C(O)[C@H](CCC(=O)[*:2])N[*:1]; αMeF = C[C@](N)(Cc1ccccc1)C(=O)O; 4Pal = N[C@@H](Cc1ccncc1)C(=O)O; αMeL = CC(C)C[C@](C)(N)C(=O)O; AEEA = NCCOCCOCC(=O)O; Aib = CC(C)(N)C(=O)O

Test [1] addresses T1, human glucose-dependent insulinotropic polypeptide (GIP) receptor (human, UniProt P48546 22-466).
T1 construct: whole, on cells; Assayed as crude membranes of stably transfected CHO cells; also called hGIPR; human GIP receptor
T1 sequence (looked up): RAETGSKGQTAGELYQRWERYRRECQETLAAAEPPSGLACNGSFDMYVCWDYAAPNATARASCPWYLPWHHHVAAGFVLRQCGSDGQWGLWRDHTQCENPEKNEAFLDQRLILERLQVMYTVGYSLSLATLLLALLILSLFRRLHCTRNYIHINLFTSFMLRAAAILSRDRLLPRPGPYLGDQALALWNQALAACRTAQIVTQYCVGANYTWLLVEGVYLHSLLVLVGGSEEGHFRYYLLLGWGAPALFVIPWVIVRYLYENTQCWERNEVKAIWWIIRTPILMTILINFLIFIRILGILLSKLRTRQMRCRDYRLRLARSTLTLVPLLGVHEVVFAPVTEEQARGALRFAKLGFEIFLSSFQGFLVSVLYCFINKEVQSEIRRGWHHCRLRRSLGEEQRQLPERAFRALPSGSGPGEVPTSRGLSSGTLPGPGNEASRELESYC
In words: SPA, displacement of [125I]-GIP from hGIPR membranes, 0.1% bacitracin. On the technique in general: Loss of bound radioactivity is the signal in a displacement assay; it reports binding, not function.

Test [2] concerns the target T2, human glucagon receptor (human, UniProt P47871 26-477).
T2 construct: whole, on cells; Assayed as crude membranes of stably transfected HEK293 cells; also called hGcgR; GcgR
In words: SPA, displacement of [125I]-Gcg from hGcgR membranes, 0.1% bacitracin. The method in brief:
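Binding buffer: 25 mM HEPES pH 7.4, 2.5 mM CaCl₂, 1 mM MgCl₂, 0.003% Tween-20, protease inhibitors without EDTA. Counted by scintillation after 12 h incubation/settling at room temperature. Four-parameter nonlinear fit; Kᵢ given as geometric mean ± SEM of independent replicates run on different days.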

The target of test [3] is T3, human GLP-1 receptor (human, UniProt P43220 24-463).
T3 construct: whole, on cells; Assayed as crude membranes of stably transfected HEK293 cells; also called hGLP1R; hGLP-1R
In words: SPA, displacement of [125I]-GLP-1 from hGLP-1R membranes, 0.1% bacitracin. The method in brief: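 Binding buffer: 25 mM HEPES pH 7.4, 2.5 mM CaCl₂, 1 mM MgCl₂, 0.1% bacitracin, 0.003% Tween-20, protease inhibitors without EDTA. Four-parameter nonlinear regression; Kᵢ given as geometric mean ± SEM, n = independent replicates run on different days.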

T2 sequence (P47871 26-477): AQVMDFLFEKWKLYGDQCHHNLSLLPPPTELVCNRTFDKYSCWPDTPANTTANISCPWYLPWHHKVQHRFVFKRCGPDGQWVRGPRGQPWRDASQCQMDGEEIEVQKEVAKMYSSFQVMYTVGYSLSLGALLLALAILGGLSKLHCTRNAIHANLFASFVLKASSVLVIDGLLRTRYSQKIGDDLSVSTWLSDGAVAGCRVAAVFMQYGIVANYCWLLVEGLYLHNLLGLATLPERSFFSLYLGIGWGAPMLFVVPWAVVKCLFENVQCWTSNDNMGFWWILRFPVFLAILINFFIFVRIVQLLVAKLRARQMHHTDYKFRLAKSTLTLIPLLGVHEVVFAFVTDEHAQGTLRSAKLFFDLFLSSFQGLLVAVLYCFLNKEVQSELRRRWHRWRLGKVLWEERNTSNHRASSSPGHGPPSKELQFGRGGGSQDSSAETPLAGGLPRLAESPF

B1: Example 48 (peptide)
peptide: Y[Aib]EGTFISDYSI[αMeL]LDKK([AEEA-AEEA-γGlu-C20 diacid])HQ[Aib]DFVE[4Pal]LLAGGPSSGAPPPS-NH2
modifications: N-terminus assumed
SMILES: CC[C@H](C)[C@H](NC(=O)[C@H](Cc1ccccc1)NC(=O)[C@@H](NC(=O)CNC(=O)[C@H](CCC(=O)O)NC(=O)C(C)(C)NC(=O)[C@@H](N)Cc1ccc(O)cc1)[C@@H](C)O)C(=O)N[C@@H](CO)C(=O)N[C@@H](CC(=O)O)C(=O)N[C@@H](Cc1ccc(O)cc1)C(=O)N[C@@H](CO)C(=O)N[C@H](C(=O)N[C@@](C)(CC(C)C)C(=O)N[C@@H](CC(C)C)C(=O)N[C@@H](CC(=O)O)C(=O)N[C@@H](CCCCN)C(=O)N[C@@H](CCCCNC(=O)COCCOCCNC(=O)COCCOCCNC(=O)CC[C@H](NC(=O)CCCCCCCCCCCCCCCCCCC(=O)O)C(=O)O)C(=O)N[C@@H](Cc1c[nH]cn1)C(=O)N[C@@H](CCC(N)=O)C(=O)NC(C)(C)C(=O)N[C@@H](CC(=O)O)C(=O)N[C@@H](Cc1ccccc1)C(=O)N[C@H](C(=O)N[C@@H](CCC(=O)O)C(=O)N[C@@H](Cc1ccncc1)C(=O)N[C@@H](CC(C)C)C(=O)N[C@@H](CC(C)C)C(=O)N[C@@H](C)C(=O)NCC(=O)NCC(=O)N1CCC[C@H]1C(=O)N[C@@H](CO)C(=O)N[C@@H](CO)C(=O)NCC(=O)N[C@@H](C)C(=O)N1CCC[C@H]1C(=O)N1CCC[C@H]1C(=O)N1CCC[C@H]1C(=O)N[C@@H](CO)C(N)=O)C(C)C)[C@@H](C)CC
Regarding B1, the Ki in test [1] was determined as 0.0498 nM; in test [2], 267 nM; in test [3], 211 nM.

B2: Example 50 (peptide)
peptide: Y[Aib]EGT[αMeF]ISDYSI[αMeL]LDKK([AEEA-AEEA-γGlu-C20 diacid])HQ[Aib]DFVE[4Pal]LLAGGPSSGAPPPS-NH2
modifications: N-terminus assumed
SMILES: CC[C@H](C)[C@H](NC(=O)[C@H](CO)NC(=O)[C@H](Cc1ccc(O)cc1)NC(=O)[C@H](CC(=O)O)NC(=O)[C@H](CO)NC(=O)[C@@H](NC(=O)[C@](C)(Cc1ccccc1)NC(=O)[C@@H](NC(=O)CNC(=O)[C@H](CCC(=O)O)NC(=O)C(C)(C)NC(=O)[C@@H](N)Cc1ccc(O)cc1)[C@@H](C)O)[C@@H](C)CC)C(=O)N[C@@](C)(CC(C)C)C(=O)N[C@@H](CC(C)C)C(=O)N[C@@H](CC(=O)O)C(=O)N[C@@H](CCCCN)C(=O)N[C@@H](CCCCNC(=O)COCCOCCNC(=O)COCCOCCNC(=O)CC[C@H](NC(=O)CCCCCCCCCCCCCCCCCCC(=O)O)C(=O)O)C(=O)N[C@@H](Cc1c[nH]cn1)C(=O)N[C@@H](CCC(N)=O)C(=O)NC(C)(C)C(=O)N[C@@H](CC(=O)O)C(=O)N[C@@H](Cc1ccccc1)C(=O)N[C@H](C(=O)N[C@@H](CCC(=O)O)C(=O)N[C@@H](Cc1ccncc1)C(=O)N[C@@H](CC(C)C)C(=O)N[C@@H](CC(C)C)C(=O)N[C@@H](C)C(=O)NCC(=O)NCC(=O)N1CCC[C@H]1C(=O)N[C@@H](CO)C(=O)N[C@@H](CO)C(=O)NCC(=O)N[C@@H](C)C(=O)N1CCC[C@H]1C(=O)N1CCC[C@H]1C(=O)N1CCC[C@H]1C(=O)N[C@@H](CO)C(N)=O)C(C)C
B2: the Ki worked out at 0.0501 nM in test [1], 23.4 nM in test [2] and 34.9 nM in test [3].

B3: Example 61 (peptide)
peptide: Y[Aib]EGT[αMeF]ISDYSI[αMeL]LDKK([AEEA-AEEA-γGlu-C20 diacid])HQ[Aib]EFVE[4Pal]LLATGPSSGAPPPS-NH2
modifications: N-terminus assumed
SMILES: CC[C@H](C)[C@H](NC(=O)[C@H](CO)NC(=O)[C@H](Cc1ccc(O)cc1)NC(=O)[C@H](CC(=O)O)NC(=O)[C@H](CO)NC(=O)[C@@H](NC(=O)[C@](C)(Cc1ccccc1)NC(=O)[C@@H](NC(=O)CNC(=O)[C@H](CCC(=O)O)NC(=O)C(C)(C)NC(=O)[C@@H](N)Cc1ccc(O)cc1)[C@@H](C)O)[C@@H](C)CC)C(=O)N[C@@](C)(CC(C)C)C(=O)N[C@@H](CC(C)C)C(=O)N[C@@H](CC(=O)O)C(=O)N[C@@H](CCCCN)C(=O)N[C@@H](CCCCNC(=O)COCCOCCNC(=O)COCCOCCNC(=O)CC[C@H](NC(=O)CCCCCCCCCCCCCCCCCCC(=O)O)C(=O)O)C(=O)N[C@@H](Cc1c[nH]cn1)C(=O)N[C@@H](CCC(N)=O)C(=O)NC(C)(C)C(=O)N[C@@H](CCC(=O)O)C(=O)N[C@@H](Cc1ccccc1)C(=O)N[C@H](C(=O)N[C@@H](CCC(=O)O)C(=O)N[C@@H](Cc1ccncc1)C(=O)N[C@@H](CC(C)C)C(=O)N[C@@H](CC(C)C)C(=O)N[C@@H](C)C(=O)N[C@H](C(=O)NCC(=O)N1CCC[C@H]1C(=O)N[C@@H](CO)C(=O)N[C@@H](CO)C(=O)NCC(=O)N[C@@H](C)C(=O)N1CCC[C@H]1C(=O)N1CCC[C@H]1C(=O)N1CCC[C@H]1C(=O)N[C@@H](CO)C(N)=O)[C@@H](C)O)C(C)C
Turning to B3, the Ki in test [1] is 0.0665 nM; in test [2], 80.4 nM; in test [3] it was 135 nM.

B4: Example 60 (peptide)
peptide: Y[Aib]EGT[αMeF]ISDYSI[αMeL]LDKK([AEEA-AEEA-γGlu-C20 diacid])HQ[Aib]EFVE[4Pal]LLAQGPSSGAPPPS-NH2
modifications: N-terminus assumed
SMILES: CC[C@H](C)[C@H](NC(=O)[C@H](CO)NC(=O)[C@H](Cc1ccc(O)cc1)NC(=O)[C@H](CC(=O)O)NC(=O)[C@H](CO)NC(=O)[C@@H](NC(=O)[C@](C)(Cc1ccccc1)NC(=O)[C@@H](NC(=O)CNC(=O)[C@H](CCC(=O)O)NC(=O)C(C)(C)NC(=O)[C@@H](N)Cc1ccc(O)cc1)[C@@H](C)O)[C@@H](C)CC)C(=O)N[C@@](C)(CC(C)C)C(=O)N[C@@H](CC(C)C)C(=O)N[C@@H](CC(=O)O)C(=O)N[C@@H](CCCCN)C(=O)N[C@@H](CCCCNC(=O)COCCOCCNC(=O)COCCOCCNC(=O)CC[C@H](NC(=O)CCCCCCCCCCCCCCCCCCC(=O)O)C(=O)O)C(=O)N[C@@H](Cc1c[nH]cn1)C(=O)N[C@@H](CCC(N)=O)C(=O)NC(C)(C)C(=O)N[C@@H](CCC(=O)O)C(=O)N[C@@H](Cc1ccccc1)C(=O)N[C@H](C(=O)N[C@@H](CCC(=O)O)C(=O)N[C@@H](Cc1ccncc1)C(=O)N[C@@H](CC(C)C)C(=O)N[C@@H](CC(C)C)C(=O)N[C@@H](C)C(=O)N[C@@H](CCC(N)=O)C(=O)NCC(=O)N1CCC[C@H]1C(=O)N[C@@H](CO)C(=O)N[C@@H](CO)C(=O)NCC(=O)N[C@@H](C)C(=O)N1CCC[C@H]1C(=O)N1CCC[C@H]1C(=O)N1CCC[C@H]1C(=O)N[C@@H](CO)C(N)=O)C(C)C
Consider B4, for which the Ki in test [1] stood at 0.039 nM; in test [2], 26.2 nM; in test [3] it was 51.4 nM.

B5: Example 44 (peptide)
peptide: Y[Aib]EGT[αMeF]ISDYSIALDKK([AEEA-AEEA-γGlu-C20 diacid])HQ[Aib]DFVE[4Pal]LLEGGPSSGAPPPS-NH2
modifications: N-terminus assumed
SMILES: CC[C@H](C)[C@H](NC(=O)[C@H](CO)NC(=O)[C@H](Cc1ccc(O)cc1)NC(=O)[C@H](CC(=O)O)NC(=O)[C@H](CO)NC(=O)[C@@H](NC(=O)[C@](C)(Cc1ccccc1)NC(=O)[C@@H](NC(=O)CNC(=O)[C@H](CCC(=O)O)NC(=O)C(C)(C)NC(=O)[C@@H](N)Cc1ccc(O)cc1)[C@@H](C)O)[C@@H](C)CC)C(=O)N[C@@H](C)C(=O)N[C@@H](CC(C)C)C(=O)N[C@@H](CC(=O)O)C(=O)N[C@@H](CCCCN)C(=O)N[C@@H](CCCCNC(=O)COCCOCCNC(=O)COCCOCCNC(=O)CC[C@H](NC(=O)CCCCCCCCCCCCCCCCCCC(=O)O)C(=O)O)C(=O)N[C@@H](Cc1c[nH]cn1)C(=O)N[C@@H](CCC(N)=O)C(=O)NC(C)(C)C(=O)N[C@@H](CC(=O)O)C(=O)N[C@@H](Cc1ccccc1)C(=O)N[C@H](C(=O)N[C@@H](CCC(=O)O)C(=O)N[C@@H](Cc1ccncc1)C(=O)N[C@@H](CC(C)C)C(=O)N[C@@H](CC(C)C)C(=O)N[C@@H](CCC(=O)O)C(=O)NCC(=O)NCC(=O)N1CCC[C@H]1C(=O)N[C@@H](CO)C(=O)N[C@@H](CO)C(=O)NCC(=O)N[C@@H](C)C(=O)N1CCC[C@H]1C(=O)N1CCC[C@H]1C(=O)N1CCC[C@H]1C(=O)N[C@@H](CO)C(N)=O)C(C)C
Regarding B5, the Ki in test [1] was 0.059 nM; in test [2], 50 nM; in test [3], 209 nM.

Broadly, the Ki is the equilibrium dissociation constant of an inhibitor or competing ligand from its target.
